In patent publication US20060019241A1, “Na+ and CI-coupled transport system for endogenous opioid peptides” (priority 2004, published 2006):
Ends that are not written are not given here.

Experiments:
[1] = tested on: deltorphin II transport system in Tat-ARPE-19 cells; assay: Inhibition of [^3H]deltorphin II uptake in Tat-ARPE-19 cells; type: cell-based, human; conditions: [^3H]deltorphin II 50 nM; for competition with deltorphin for the uptake process (in words): Tat-ARPE-19 / RPE cells, compound 1 mM; for [^3H] Deltorphin II uptake / [^3H] Deltorphin II uptake (%) of control: Tat-ARPE-19 cells, 30 minutes, NaCl, inhibitor 1 mM; for [^3H] Deltorphin II uptake (%) of control: control = 100
Text: Stable transfection of ARPE-19 cells with pcDNA-Tat cDNA. The pGEM2-Tat cDNA construct contained as the insert a 295 basepair (bp) fragment encoding the first exon of HIV-1 Tat gene joined to a 145 bp pET3A transcription terminator. The entire insert (440 bp) was removed from the construct by digestion with PstI and EcoRI and ligated into the multiple cloning region of pcDNA3.1 (−) vector at PstI/EcoRI site so that the insert is downstream of the cytomegalovirus (CMV) promoter. The resultant construct was sequenced to confirm the orientation of the insert. This construct was electroporated into ARPE-19 cells and the stably transfected cell clones were isolated in the presence of Geneticin (G418). To serve as a control, empty pcDNA3.1 vector was electroporated into ARPE-19 cells in an identical manner and the clones harboring the vector were selected by G418 resistance.
Uptake measurements in control ARPE-19 cells and Tat-ARPE-19 cells. Control ARPE-19 cells and Tat-ARPE-19 cells were maintained in 75-cm^2 culture flasks in Dulbecco's modified Eagle's medium/F12 medium (1:1, volume/volume (v/v)) in the presence of fetal bovine serum (10%) and G418 (100 μg/ml). For uptake measurements, cells were released by trypsin treatment and seeded in 24-well culture plates at an initial density of 0.1×10^6 cells/well. The culture medium was replaced with fresh medium on the second day following the initial seeding and uptake measurements were made on the third day. […] After incubation at 37° C. for a desired time, uptake was terminated by the removal of the medium and washing of the cells with ice-cold uptake buffer. The cells were then dissolved in 1% SDS in 0.2 M NaOH and used for measurement of radioactivity. The uptake buffer in most experiments was 25 mM Hepes/Tris (pH 7.5), containing 140 mM NaCl, 5.4 mM KCl, 1.8 mM CaCl2, 0.8 mM MgSO4 and 5 mM glucose.
When the influence of Na^+ on the uptake process was investigated, the concentration of NaCl in the uptake buffer was adjusted, as desired, by isoosmotically replacing NaCl with N-methyl-D-glucamine chloride. To assess the influence of Cl^− on the uptake process, the composition of the uptake medium was modified by replacing KCl and CaCl2 with equimolar concentrations of potassium gluconate and calcium gluconate and the concentration of NaCl was adjusted, as desired, by iso-osmotically replacing NaCl with sodium gluconate. Saturation kinetics were analysed by fitting the data to the Michaelis-Menten equation. The Michaelis-Menten constant, Kt, was calculated by non-linear regression analysis and then confirmed by linear regression. Na^+- and Cl^−-activation kinetics were analyzed by fitting the data to the Hill equation and the Hill coefficients for Na^+ and Cl^− (h; the number of Na^+ and Cl^− ions involved in the activation process) and the K0.5 values (the concentration of Na^+ and Cl^−-needed for half-maximal activation) were determined from the analysis. Again, these constants were first calculated by non-linear regression methods and subsequently confirmed by linear regression methods. Experiments were repeated three times in duplicate and the results are given as means±S.E.M.
Substrate specificity of the deltorphin transport system. […] These peptides consisted of 4-13 amino acids.
Relative affinities of endogenous opioid peptides for the transport system.

[2] = target: Na+- and Cl--coupled transport system for endogenous opioid peptides (human cell lines ARPE-19, Tat-ARPE-19 and SK-N-SH) (human); assay: cell-based or functional assay

Molecule | competition with deltorphin for the uptake process (in words) [1] | [^3H] Deltorphin II uptake [1] | [^3H] Deltorphin II uptake (%) of control [1] | [3H]deltorphin II (50 nM) uptake in Tat-ARPE-19 cells, 30 min, NaCl, inhibitor 1 mM (pmol/mg protein/30 min) [2] | [3H]deltorphin II uptake (%) in Tat-ARPE-19 cells, inhibitor 1 mM [2] | IC50 for inhibition of [3H]deltorphin II uptake in Tat-ARPE-19 cells [2] | further results
NCCC(=O)N[C@@H](Cc1cnc[nH]1)C(=O)O [Carnosine, β-Ala-His] | did not compete | 6.21 ± 0.08 pmol/mg protein/30 min | 80% |  |  |  | 
NCC(=O)O [Glycine] | did not compete | 7.23 ± 0.14 pmol/mg protein/30 min | 93% |  |  |  | 
O=C(O)[C@@H]1CCCN1 [L-Proline] | did not compete | 7.31 ± 0.20 pmol/mg protein/30 min | 94% |  |  |  | 
N[C@@H](Cc1ccc(O)cc1)C(=O)O [L-Tyrosine] | did not compete | 7.52 ± 0.15 pmol/mg protein/30 min | 97% |  |  |  | 
Carnosine (β-Ala-His) (peptide) |  |  |  | 6.21 | 80 % of control |  | 
Dynorphin A (1-6) (Tyr-Gly-Gly-Phe-Leu-Arg) (peptide) |  |  |  | 0.12 | 2 % of control | 4.2 mM | [3H]deltorphin II (50 nM) uptake in control ARPE-19 cells, 30 min, NaCl, opioid peptide 1 mM (pmol/mg protein/30 min) [2]: 0.06; [3H]deltorphin II uptake (%) in control ARPE-19 cells, opioid peptide 1 mM [2]: 5 % of control; affinity from concentration-dependent inhibition of [3H]deltorphin II (25 nM) uptake in SK-N-SH cells [2]: 3.5 µM
Dynorphin A (1-7) (Tyr-Gly-Gly-Phe-Leu-Arg-Arg) (peptide) |  |  |  | 0.1 | 1 % of control | 7.3 mM | [3H]deltorphin II (50 nM) uptake in control ARPE-19 cells, 30 min, NaCl, opioid peptide 1 mM (pmol/mg protein/30 min) [2]: 0.05; [3H]deltorphin II uptake (%) in control ARPE-19 cells, opioid peptide 1 mM [2]: 5 % of control; affinity from concentration-dependent inhibition of [3H]deltorphin II (25 nM) uptake in SK-N-SH cells [2]: 4.6 µM
Gly-Gly-Gly (peptide) |  |  |  | 9.68 | 125 % of control |  | 
Gly-Gly-Ile (peptide) |  |  |  |  |  |  | stimulation of deltorphin II uptake in SK-N-SH cells [2]: 6 to 8 fold
Gly-Gly-Phe-Met [[des-Tyr^1] Met-enkephalin] | marked inhibition | 0.74 ± 0.03 pmol/mg protein/30 min | 10% |  |  |  | 
Leu-enkephalin (Tyr-Gly-Gly-Phe-Leu) (peptide) |  |  |  | 0.15 | 2 % of control | 9.5 mM | affinity from concentration-dependent inhibition of [3H]deltorphin II (25 nM) uptake in SK-N-SH cells [2]: 7.8 µM
Met-enkephalin (Tyr-Gly-Gly-Phe-Met) (peptide) |  |  |  | 0.5 | 6 % of control | 33.2 mM | [3H]deltorphin II (50 nM) uptake in control ARPE-19 cells, 30 min, NaCl, opioid peptide 1 mM (pmol/mg protein/30 min) [2]: 0.06; [3H]deltorphin II uptake (%) in control ARPE-19 cells, opioid peptide 1 mM [2]: 5 % of control; affinity from concentration-dependent inhibition of [3H]deltorphin II (25 nM) uptake in SK-N-SH cells [2]: 10.7 µM
Met-enkephalinamide (Tyr-Gly-Gly-Phe-Met-NH2) (peptide) |  |  |  | 0.69 | 9 % of control | 13 mM | 
Tyr-Gly-Gly-Phe (YGGF; printed: Tyr-Gly-Gly-Phe) [β-Lipotropin] | no or little inhibition | 6.26 ± 0.31 pmol/mg protein/30 min | 81% |  |  |  | 
Tyr-Gly-Gly-Phe-Met-NH2 (YGGFM; printed: Tyr-Gly-Gly-Phe-Met-) [Met-enkephalinamide] | marked inhibition | 0.69 ± 0.01 pmol/mg protein/30 min | 9% |  |  |  | 
Tyr-Pro | did not compete | 5.72 ± 0.09 pmol/mg protein/30 min | 74% |  |  |  | 
Tyr-Pro (peptide) |  |  |  | 5.72 | 74 % of control |  | 
[Arg6, Gly7, Leu8]Met-enkephalin (Tyr-Gly-Gly-Phe-Met-Arg-Gly-Leu) (peptide) |  |  |  | 0.09 | 1 % of control | 2.5 mM | [3H]deltorphin II (50 nM) uptake in control ARPE-19 cells, 30 min, NaCl, opioid peptide 1 mM (pmol/mg protein/30 min) [2]: 0.04; [3H]deltorphin II uptake (%) in control ARPE-19 cells, opioid peptide 1 mM [2]: 4 % of control
[Arg6, Phe7]Met-enkephalin (Tyr-Gly-Gly-Phe-Met-Arg-Phe) (peptide) |  |  |  | 0.11 | 1 % of control | 9.1 mM | [3H]deltorphin II (50 nM) uptake in control ARPE-19 cells, 30 min, NaCl, opioid peptide 1 mM (pmol/mg protein/30 min) [2]: 0.05; [3H]deltorphin II uptake (%) in control ARPE-19 cells, opioid peptide 1 mM [2]: 4 % of control
[des-Tyr1]Met-enkephalin (Gly-Gly-Phe-Met) (peptide) |  |  |  | 0.74 | 10 % of control | 31.9 mM | 
α-Neo-endorphin (1-6) (Tyr-Gly-Gly-Phe-Met-Lys) (peptide) |  |  |  | 0.19 | 3 % of control |  | 
β-Casomorphin (Tyr-Pro-Phe-Pro-Gly-Pro-Ile) (peptide) |  |  |  | 2.03 | 26 % of control |  | 
β-Lipotropin (Tyr-Gly-Gly-Phe) (peptide) |  |  |  | 6.26 | 81 % of control |  | 
YPLG-NH2 [tyrosine melanocyte-stimulating hormone inhibitory factor 1 (Tyr-MIF-1; Tyr-Pro-Leu-Gly-NH2)] |  |  |  | 9.2 | 119 % of control |  | 
YGGFLRRQF [Dynorphin B (1-9) (Tyr-Gly-Gly-Phe-Leu-Arg-Arg-Gln-Phe)] |  |  |  | 0.08 | 1 % of control | 3.1 mM | [3H]deltorphin II (50 nM) uptake in control ARPE-19 cells, 30 min, NaCl, opioid peptide 1 mM (pmol/mg protein/30 min) [2]: 0.06; [3H]deltorphin II uptake (%) in control ARPE-19 cells, opioid peptide 1 mM [2]: 5 % of control
